Measurements published in patent publication US20260062488A1 (AbbVie / Abbott, published 2026).
Where a chain is given by its changes, count along the chain named. Each block holds one binder with its values, some of them ahead of it.

Legend:
human α4β7 integrin [1] = target: T1, human α4β7 integrin (human, UniProt P13612 34-1032; P26010 20-798); assay: blockade of MAdCAM-1 mediated HuT78 cell adhesion
T1 construct: also called hα4β7; a4b7

cynomolgus α4β7 integrin [2] = target: T2, cynomolgus α4β7 integrin (cynomolgus monkey); assay: blockade of CHOK1/cα4β7 adhesion to MAdCAM-1
T2 construct: whole, on cells; On CHOK1-cα4β7 cells or cynomolgus blood lymphocytes; also called cα4β7; cyno α4β7

human α4β7 integrin [3] = target: T1, human α4β7 integrin; assay: FACS on α4β7-expressing HuT78 cells
human α4β7 integrin [4] = target: T1, human α4β7 integrin; assay: MadCAM-1/HuT78 potency (adhesion blockade), summary table
human α4β7 integrin [5] = target: T1, human α4β7 integrin; assay: FACS binding, human CD4+CD45RO+ T cells, summary table
human α4β7 integrin [6] = target: T1, human α4β7 integrin; assay: inhibition of MAdCAM-1 binding to human CD4+CD45RO+ T cells
human α4β7 integrin [7] = target: T1, human α4β7 integrin; assay: FACS titration on BaF3-hα4β7
human α4β7 integrin [8] = target: T1, human α4β7 integrin; assay: blockade of HuT78 cell adhesion to plate-bound MAdCAM-1, representative experiment; the two IC50 lines under the plot bear no name: the lower one is given to Ab-m1, whose curve lies left of Ab-Vedo's (midpoint near log -2.1 ug/ml)
human α4β7 integrin [9] = target: T1, human α4β7 integrin; assay: FACS, primary human CD4+ memory T cells
human α4β7 integrin [10] = target: T1, human α4β7 integrin; assay: row IC50 (pM) HuT78 of the binning table (assay not explained, presumably adhesion to MAdCAM-1)
cynomolgus α4β7 integrin [11] = target: T2, cynomolgus α4β7 integrin; assay: blockade of CHOK1-cα4β7 cell adhesion to MAdCAM-1
cynomolgus α4β7 integrin [12] = target: T2, cynomolgus α4β7 integrin; assay: MadCAM-1/cα4β7 potency (adhesion blockade), summary table
cynomolgus α4β7 integrin [13] = target: T2, cynomolgus α4β7 integrin; assay: blockade of CHOK1-cα4β7 cell adhesion to MAdCAM-1; remark: listed apart in the source
human α4β7 integrin [14] = target: T1, human α4β7 integrin; assay: blockade of HuT78 cell adhesion to MAdCAM-1
cynomolgus α4β7 integrin [15] = target: T2, cynomolgus α4β7 integrin; assay: ratio of cyno to human adhesion-blockade potency, summary table
cynomolgus α4β7 integrin [16] = target: T2, cynomolgus α4β7 integrin; assay: blockade of CHOK1-cα4β7 cell adhesion to MAdCAM-1, representative experiment; the two IC50 lines under the plot bear no name: the lower one is given to Ab-m1, whose curve lies clearly left of Ab-Vedo's (midpoint near log -1.6 ug/ml)
human α4β7 integrin [17] = target: T1, human α4β7 integrin; assay: blockade of HuT78 cell adhesion to MAdCAM-1; remark: listed apart in the source
human α4β7 integrin [18] = target: T1, human α4β7 integrin; assay: FACS, primary human CD4+ memory T cells (CD4+CD45RO+), one whole blood

B1: Ab-h1.5 (antibody, human IgG1, V domains shown)
VH: EVQLVQSGAEVKKPGSSVKVSCTTSGFNIKNTYMHWVKQRPGQGLEWIGRIDPANGHTEYAPKFQGKATITADESTNTAYLELSSLRSEDTAVYYCYYVDSWGQGTTVTVSS
VL: DIQMTQSPSSLSASVGDRVTITCHASQGISDNIGWLQQKPGKSFKGLIYHGTNLEDGVPSRFSGSGSGADYTLTISSLQPEDFATYYCVQYAQFPWTFGGGTKVEIKR
IC50 (human α4β7 integrin [1]): 0.0091 nM

B2: Ab-h1.9 (antibody, human IgG1, V domains shown)
VH: B1 VH with T23K, T24A, K38R, R40A, K67R, A68V, L81M
VL: DIQMTQSPSSLSASVGDRVTITCHASQGISDNIGWLQQKPGKSFKLLIYHGTNLEDGVPSRFSGSGSGTDYTLTISSLQPEDFATYYCVQYAQFPWTFGGGTKVEIK
notes: Humanized, human IgG1 and kappa constant regions; also called Ab-H1.9 (parental)
IC50 (human α4β7 integrin [1]): 0.0114 nM
IC50 (cynomolgus α4β7 integrin [2]): 0.0365 nM

B4: Ab-h1.6 (antibody, human IgG1, V domains shown)
VH: B1 VH
VL: B2 VL
IC50 (human α4β7 integrin [1]): 0.0081 nM

B9: Ab-c1 (antibody, human IgG1, V domains shown)
VH: EVQLQQSVAELVRPGASVKLSCTTSGFNIKNTYMHWVKQRPKQGLEWIGRIDPANGHTEYAPKFQGKATITADTSSNTAYLHLSSLTSDDTAIYYCYYVDSWGQGTTLTVSS
VL: DILMTQSPSSMSVSLGDTVSITCHASQGISDNIGWLQQRPGKSFKGLIYHGTNLEDGVPSRFSGSGSGADYSLTISSLESEDFADYYCVQYAQFPWTFGGGTTLEIK
notes: Ab-m1's variable regions with human IgG1/k constant regions; also called murine-human chimera Ab-c1; Chimeric anti-human α4β7 [hu IgG1/k
IC50 (cynomolgus α4β7 integrin [13]): 0.0864 nM
IC50 (human α4β7 integrin [14]): 0.0137 nM
EC50 (human α4β7 integrin [18]): 0.0039 nM

Now from value to binder:

binding result (human α4β7 integrin [3]): binds
B3: Ab-h1.9b (antibody, V domains shown)
VH: B1 VH with T23K, T24A, K38R, R40A, N55R, Q65S, K67R, A68V, L81M, S101Q
VL: B2 VL with G28D
notes: Liability-engineered clone converted to IgG format [hu IgG1/k]; constant regions of the tested mAb not specified

IC50 (human α4β7 integrin [1]): 0.0138 nM
B5: Ab-h1.8 (antibody, human IgG1, V domains shown)
VH: B1 VH with T23K, T24A, K38R, R40A, K67R, A68V, L81M
VL: B1 VL

binding result (human α4β7 integrin [3]): binds
B6: Ab-h1.9a (antibody, V domains shown)
VH: B1 VH with T23K, T24A, K38R, R40A, G56K, Q65L, K67R, A68V, L81M, D100A
VL: B2 VL with G28E
notes: as for B3

binding result (human α4β7 integrin [3]): binds
B7: Ab-h1.9e (antibody, V domains shown)
VH: B1 VH with T23K, T24A, K38R, R40A, N55G, Q65I, K67R, A68V, L81M, D100A
VL: B2 VL with G28E
notes: as for B3

IC50 (human α4β7 integrin [4]): 0.0555 nM
EC50 (human α4β7 integrin [5]): 0.0098 nM
IC50 (human α4β7 integrin [6]): 0.0637 nM
EC50 (human α4β7 integrin [7]): 0.474 nM
IC50 (human α4β7 integrin [8]): 0.0511 nM
EC50 (human α4β7 integrin [9]): 0.0098 nM
IC50 (human α4β7 integrin [10]): 0.0447 nM
IC50 (cynomolgus α4β7 integrin [11]): 0.201 nM
IC50 (cynomolgus α4β7 integrin [12]): 0.201 nM
IC50 (cynomolgus α4β7 integrin [13]): 0.0658 nM
IC50 (human α4β7 integrin [14]): 0.0228 nM
Cyno x-reactivity (cynomolgus α4β7 integrin [15]): 4 fold
IC50 (cynomolgus α4β7 integrin [16]): 0.165 nM
IC50 (human α4β7 integrin [17]): 0.0555 nM
B8: Ab-m1 (antibody, V domains shown)
VH: B9 VH
VL: B9 VL
notes: Hybridoma antibody, mouse IgG1/kappa; also called murine antibody Ab-m1; Mouse anti-human α4β7 [mu IgG1/k
